From paper PMC7832040 (Science translational medicine, 2020)

Columns and labels:
[1] = biological target: T1, CD206 (Homo sapiens, UniProt P22897); conditions: xenotransplanted tumors; ref [39]–[41]; cited from earlier work
T1 sequence (P22897 19-1456): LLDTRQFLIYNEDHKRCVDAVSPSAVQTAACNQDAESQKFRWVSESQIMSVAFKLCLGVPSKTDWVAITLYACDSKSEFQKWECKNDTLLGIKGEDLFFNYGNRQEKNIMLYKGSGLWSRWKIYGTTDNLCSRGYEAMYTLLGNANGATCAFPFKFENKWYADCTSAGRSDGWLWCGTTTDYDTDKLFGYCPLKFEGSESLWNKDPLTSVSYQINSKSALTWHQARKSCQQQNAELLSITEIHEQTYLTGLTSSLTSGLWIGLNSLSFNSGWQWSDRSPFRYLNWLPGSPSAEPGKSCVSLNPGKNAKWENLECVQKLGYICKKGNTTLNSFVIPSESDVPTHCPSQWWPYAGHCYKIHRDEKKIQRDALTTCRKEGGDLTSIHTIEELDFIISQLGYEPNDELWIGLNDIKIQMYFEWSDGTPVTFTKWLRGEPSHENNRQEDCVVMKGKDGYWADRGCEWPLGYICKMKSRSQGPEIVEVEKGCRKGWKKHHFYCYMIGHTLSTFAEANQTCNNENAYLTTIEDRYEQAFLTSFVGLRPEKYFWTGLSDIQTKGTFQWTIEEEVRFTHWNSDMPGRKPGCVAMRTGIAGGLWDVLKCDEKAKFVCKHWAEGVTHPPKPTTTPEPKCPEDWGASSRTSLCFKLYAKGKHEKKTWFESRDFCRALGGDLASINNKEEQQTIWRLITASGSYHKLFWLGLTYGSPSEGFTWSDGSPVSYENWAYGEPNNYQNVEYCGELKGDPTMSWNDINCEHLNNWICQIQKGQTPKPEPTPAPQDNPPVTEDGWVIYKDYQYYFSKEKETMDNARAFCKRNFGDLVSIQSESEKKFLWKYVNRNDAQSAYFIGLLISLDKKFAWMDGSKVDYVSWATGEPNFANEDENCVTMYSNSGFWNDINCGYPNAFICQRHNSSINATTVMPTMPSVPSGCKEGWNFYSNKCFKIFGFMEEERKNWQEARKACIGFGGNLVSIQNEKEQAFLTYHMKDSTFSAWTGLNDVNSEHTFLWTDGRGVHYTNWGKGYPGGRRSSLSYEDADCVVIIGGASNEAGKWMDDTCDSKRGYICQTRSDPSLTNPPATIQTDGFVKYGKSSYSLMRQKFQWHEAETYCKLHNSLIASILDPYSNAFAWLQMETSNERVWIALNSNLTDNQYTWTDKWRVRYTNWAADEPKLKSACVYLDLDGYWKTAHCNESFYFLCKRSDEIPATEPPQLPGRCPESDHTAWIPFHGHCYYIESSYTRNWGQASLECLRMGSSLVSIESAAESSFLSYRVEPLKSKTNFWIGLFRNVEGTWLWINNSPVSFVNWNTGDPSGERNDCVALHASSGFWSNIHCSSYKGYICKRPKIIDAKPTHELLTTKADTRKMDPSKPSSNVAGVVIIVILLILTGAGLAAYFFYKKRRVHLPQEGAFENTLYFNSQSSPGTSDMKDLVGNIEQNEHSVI

[2] = biological target: mannose receptor CD206, human, recombinant (human) (UniProt P22897); assay: MST
[3] = biological target: murine CD206 (murine) (UniProt Q61830); assay: MST
[4] = biological target: endogenous CD206 in human M2-polarized macrophages (human (endogenous in M2-polarized macrophages)) (UniProt P22897); assay: cellular thermal shift assay
[5] = biological target: endogenous CD206 in murine M2-polarized macrophages (BMDMs) (mouse (endogenous in M2 BMDMs)) (UniProt Q61830); assay: cellular thermal shift assay
endogenous CD206 in murine M2-polarized macrophages (BMDMs) (mouse (endogenous in M2 BMDMs)), sequence (Q61830 20-1456): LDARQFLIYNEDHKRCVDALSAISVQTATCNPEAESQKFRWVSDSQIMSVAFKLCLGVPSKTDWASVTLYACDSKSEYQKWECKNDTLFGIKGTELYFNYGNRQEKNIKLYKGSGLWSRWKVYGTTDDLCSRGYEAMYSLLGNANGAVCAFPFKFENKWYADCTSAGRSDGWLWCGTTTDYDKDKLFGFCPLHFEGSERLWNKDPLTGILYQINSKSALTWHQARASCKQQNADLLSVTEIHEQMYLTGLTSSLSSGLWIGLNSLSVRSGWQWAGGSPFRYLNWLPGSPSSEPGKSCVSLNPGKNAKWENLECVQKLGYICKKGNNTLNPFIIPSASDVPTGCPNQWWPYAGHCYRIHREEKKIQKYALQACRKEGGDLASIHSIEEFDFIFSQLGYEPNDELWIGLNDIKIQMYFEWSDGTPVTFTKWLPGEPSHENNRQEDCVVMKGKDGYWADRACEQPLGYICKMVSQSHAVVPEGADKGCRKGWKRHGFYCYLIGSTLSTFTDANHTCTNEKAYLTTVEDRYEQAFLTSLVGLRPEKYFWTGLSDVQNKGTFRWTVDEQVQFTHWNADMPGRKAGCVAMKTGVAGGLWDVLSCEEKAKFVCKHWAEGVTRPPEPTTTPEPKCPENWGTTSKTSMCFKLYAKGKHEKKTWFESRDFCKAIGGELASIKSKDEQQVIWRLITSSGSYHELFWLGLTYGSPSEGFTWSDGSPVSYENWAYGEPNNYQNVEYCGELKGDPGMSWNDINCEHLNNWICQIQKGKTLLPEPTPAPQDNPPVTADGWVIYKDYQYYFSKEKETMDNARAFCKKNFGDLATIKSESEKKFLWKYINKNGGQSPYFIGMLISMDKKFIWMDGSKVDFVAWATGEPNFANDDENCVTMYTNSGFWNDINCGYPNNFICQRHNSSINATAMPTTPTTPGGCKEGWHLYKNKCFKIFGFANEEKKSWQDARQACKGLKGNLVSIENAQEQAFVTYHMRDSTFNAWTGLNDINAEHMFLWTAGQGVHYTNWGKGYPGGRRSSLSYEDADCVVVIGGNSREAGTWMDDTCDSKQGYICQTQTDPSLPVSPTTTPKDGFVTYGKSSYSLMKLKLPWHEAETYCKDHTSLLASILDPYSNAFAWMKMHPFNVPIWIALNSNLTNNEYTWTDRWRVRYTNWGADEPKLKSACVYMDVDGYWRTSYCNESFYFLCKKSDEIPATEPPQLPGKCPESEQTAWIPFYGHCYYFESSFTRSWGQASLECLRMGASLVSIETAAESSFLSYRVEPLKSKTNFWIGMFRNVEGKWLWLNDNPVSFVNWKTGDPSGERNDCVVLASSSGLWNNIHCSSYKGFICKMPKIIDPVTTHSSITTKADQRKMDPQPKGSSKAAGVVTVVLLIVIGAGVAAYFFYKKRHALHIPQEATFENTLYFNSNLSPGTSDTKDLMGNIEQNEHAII

murine CD206 (murine), sequence (Q61830 20-1456): as above

| Substance | delivery of nanoparticles to tumors [1] | Kd [2] [µM] | Kd [3] [µM] | thermostability shift of CD206 (CETSA) [4] [°] | thermostability shift of CD206 (CETSA) [5] [°] |
| --- | --- | --- | --- | --- | --- |
| CSPGAKVRC [UNO] | able to carry drug-loaded nanoparticles targeting CD206 into xenotransplanted tumors |  |  |  |  |
| RP-182 (peptide) |  | 8 | 19 | > 4 | > 4 |
